Results published in patent US20050042720A1, “Novel promiscuous G alpha protein mutants and their use” (7TM Pharma A/S, priority 2003, published 2005).
Where a chain is given by its changes, count along the chain named. Names and notes keep the numbering of the source.

Key:
Type in all cases: cell-based
phospholipase Cβ [1] = assay: PI-hydrolysis assay in COS7 cells cotransfected with receptor and mutant/chimeric Gαq subunits (Example 3)
From the text: Murine wild type Gαq was cloned from mouse brain by RT-PCR and inserted into the BamHI-NslI-sites of pcDNA1.1. All wild type and mutant Gα subunits contained an internal hemagglutinin epitope tag DVPDYA (Wedegaertner et al., 1993) replacing Gαqwt residues 125-130. To create the C-terminally modified Gαqi5 subunit, in which the last five aa of wt Gαq were replaced with the corresponding Gαi sequence, a 175-bp BglII-NslI fragment was replaced, in a two piece ligation, with a synthetic DNA fragment, containing the desired codon changes. Gαqs5/z5 were prepared in an analogous fashion. GαqG66x mutants were prepared with the Stratagene quick change mutagenesis kit according to the manufacturer's instructions. To generate GαqG66Xi5/s5/z5(X=D,V,N,K), a 175 bp BglII-NsiI fragment was removed from GαqG66X and replaced with the corresponding BglII-NsiI fragment of Gαqi5 and Gαqs5/z5, respectively. The correctness of all PCR-derived sequences was verified by sequencing in both directions. […]
(§1) 18-24 h after transfections cells were splitted into 35-mm dishes in culture medium supplemented with 3 μCi/ml [3H]myo-inositol (20 Ci/mmol; Amersham). […] Cells were then stimulated in the same buffer with the appropriate agonist ligands for 1 h (37° C.), and increases in intracellular inositolphosphate determined by anion exchange chromatography as described (Kostenis et al., 1997).

[2] = test system: chemokine CXCR1 and dopamine D2 receptor; assay: Calcium mobilization assay in COS7 cells cotransfected with receptor and Gα16 constructs; conditions: CXCR1 (interleukin 8) and D2 ((−)quinpirole) receptors, FIG. 13
Experimental: 24 h after transfection, COS7 cells were split into 96 well plates at a density of ˜30,000 cells per well. 18-24 h later cells were loaded with a calcium sensitive dye (calcium assay kit from Molecular devices) for 1 h (37 C, 5% CO2) and then for 1 h at room temperature. Ligands were transferred to the cell plate from the sample plate using the Novostar's integrated pipette. To obtain the specific fluorescence response, baseline fluorescence counts before addition of ligands were subtracted from the peak of the calcium response Specific responses were used to plot the concentration response curve.
Murine Wild type Gα16 was cloned as described above. […] was prepared with the Stratagene quick change mutagenesis kit according to the manufacturers instructions. The correctness of all PCR-derived sequences was verified by sequencing in both directions.
COS7 cells were grown and transfected as described above.
24 h after transfection, COS7 cells were split into 96 well plates at a density of […] cells per well. 18-24 h later cells were loaded with a calcium sensitive dye (calcium assay kit from Molecular devices) for 1 h (37 C, 5% CO2) and then for 1 h at room temperature. […] To obtain the specific fluorescence response, baseline fluorescence counts before addition of ligands were subtracted from the peak of the calcium response. […]

phospholipase Cβ [3] = assay: Basal IP formation in COS7 cells transfected with Gα subunit alone (constitutive activity); conditions: no receptor, no ligand, FIG. 6
Experimental: Basal IP3 formation was determined in COS7 cells transiently transfected with vector DNA, Gαqwt, GαqG66D and the constitutively active Gα15Q212L mutant as described in detail in the Examples. Data represent mean values±SEM of 4 independent experiments performed in duplicate.
COS7 cells were grown in Dulbecco's modified Eagles medium supplemented with 10% (vol/vol) fetal calf serum, Penicillin-Streptomycin (10000 IU/ml-10000 μg/ml) and 2 mM L-Glutamin in a humidified 5% CO2 incubator. For transfections, 1×10^6 cells were seeded into 100-mm dishes. About 24 h later, cells were cotransfected with the indicated G protein and receptor constructs (1:1 ratio) by using the Fugene transfection reagent as per manufacturer's instructions.
as §1, with “split” for “splitted”, “35 mm” for “35-mm”, “Ci/mmol:” for “Ci/mmol;”, “45 min” for “1 h”, “1997)” for “1997).”
To test whether the mutant Gαq subunit differs from Gαq wt in its ability to signal to phospholipase Cβ, plasmids encoding the respective cDNAs were transiently transfected into COS7 cells and IP1 accumulation was measured.

B1: GαqG66Di5: Gαq combining G66D linker I mutation with C-terminal five amino acids of Gαi; SEQ ID No. 6 (protein, listed as Mus musculus)
chain: MTLESIMACCLSEEAKEARRINDEIERHVRRDKRDARRELKLLLLGTGESGKSTFIKQMRIIHGSXYSDEDKRGFTKLVYQNIFTAMQAMIRAMDTLKIPYKYEHNKAHAQLVREVDVEKVSAFENPYVDAIKSLWNDPGIQECYDRRREYQLSDSTKYYLNDLDRVADPSYLPTQQDVLRVRVPTTGIIEYPFDLQSVIFRMVDVGGQRSERRKWIHCFENVTSIMFLVALSEYDQVLVESDNENRMEESKALFRTIITYPWFQNSSVILFLNKKDLLEEKIMYSHLVDYFPEYDGPQRDAQAAREFILKMFVDLNPDSDKIIYSHFTCATDTENIRFVFAAVKDTILQLNLKDCGLF
modifications: (66)..(66) Xaa is selected from the group consisting of Asp, Val, Asn and Lys
agonist-induced IP3 / PLCβ activity (phospholipase Cβ [1]; Gi/o coupled receptors CXCR2, CCR5, SSTR1, KOR, GPR7, HM74a, NPY4, M2, P2Y12, FIG. 11): robust IP3 increases exceeding those observed upon coexpression with the C-terminal or the G66D mutant alone

B2: GαqG66Ds5: Gαq combining G66D linker I mutation with C-terminal five amino acids of Gαs; SEQ ID No. 7 (protein, listed as Mus musculus)
chain: B1 chain with D355Q, C356Y, G357E, F359L
modifications: (66)..(66) Xaa is selected from the group consisting of Asp, Val, Asn and Lys
response (stimulation of PLCβ) versus individual mutants (phospholipase Cβ [1]; coexpressed non-Gq-selective receptor, Gs-linked GLP1, GIP, DP, adrenergic β2 (FIG. 12)): robust response exceeding the response observed upon coexpression with the C-terminal or the GαwG66D mutant alone

B3: Gα16G69D: Gα16 with glycine 69 to aspartate mutation in linker I; SEQ ID No 5 (protein, listed as Homo sapiens)
chain: MARSLTWRCCPWCLTEDEKAAARVDQEINRILLEQKKQDRGELKLLLLGPGESGKSTFIKQMRIIHGAXYSEEERKGFRPLVYQNIFVSMRAMIEAMERLQIPFSRPESKHHASLVMSQDPYKVTTFEKRYAAAMQWLWRDAGIRACYERRREFHLLDSAVYYLSHLERITEEGYVPTAQDVLRSRMPTTGINEYCFSVQKTNLRIVDVGGQKSERKKWIHCFENVIALIYLASLSEYDQCLEENNQENRMKESLALFGTILELPWFKSTSVILFLNKTDILEEKIPTSHLATYFPSFQGPKQDAEAAKRFILDMYTRMYTGCVDGPEGSKKGARSRRLFSHYTCATDTQNIRKVFKDVRDSVLARYLDEINLL
modifications: (69)..(69) Xaa is selected from the group consisting of Asp, Val, Asn and Lys
agonist-induced intracellular calcium mobilization [2]: significantly increased

B4: Gα16: Murine wild type Gα16 (protein, UniProt P30678 1-374, looked up)
Guanine nucleotide-binding …: MARSLTWGCCPWCLTEEEKTAARIDQEINRILLEQKKQEREELKLLLLGPGESGKSTFIKQMRIIHGVGYSEEDRRAFRLLIYQNIFVSMQAMIDAMDRLQIPFSRPDSKQHASLVMTQDPYKVSTFEKPYAVAMQYLWRDAGIRACYERRREFHLLDSAVYYLSHLERISEDSYIPTAQDVLRSRMPTTGINEYCFSVKKTKLRIVDVGGQRSERRKWIHCFENVIALIYLASLSEYDQCLEENDQENRMEESLALFSTILELPWFKSTSVILFLNKTDILEDKIHTSHLATYFPSFQGPRRDAEAAKSFILDMYARVYASCAEPQDGGRKGSRARRFFAHFTCATDTQSVRSVFKDVRDSVLARYLDEINLL
agonist-induced intracellular calcium mobilization [2]: gain the ability to stimulate calcium mobilization

B5: Gα15Q212L: GTPase defective, constitutively active Gα15 mutant replacing Glutamine 212 by Leucine (protein, UniProt P30678 1-374, looked up, variant Q212L)
Guanine nucleotide-binding …: B4 Guanine nucleotide-binding … with Q212L
basal IP1 accumulation / ability to activate PLCβ (constitutive activity) (phospholipase Cβ [3]): robust IP1 increase
